Experimental findings from patent US20220251219A1 (published 2022) are described below.

Assay [1] concerns the target T1, recombinant mouse Sortilin (mouse, UniProt Q6PHU5 74-825).
T1 construct: also called mSort
Put plainly: flow cytometry, 293 cells expressing recombinant mouse Sortilin, 10 ug/ml antibody.
Method: (§1) Cells were harvested, plated at 10⁵/ml in a 96 well plate, washed, and incubated in 100 μl PBS containing 10 μg/ml Mab and 2% FBS for 1 hour in ice. Cells were then washed twice and incubated in 100 μl PBS+2% FBS containing 5 μg/ml PE-conjugated anti-human secondary antibody for 30 minutes in ice. Cells were washed twice in cold PBS and data was acquired on a BD FACS Canto. Data analysis and calculation of MFI values was performed with FlowJo (TreeStar) software version 10.0.7.

Assay [2] has as its target T2, recombinant human Sortilin (human, UniProt Q99523 78-830).
T2 construct: also called hSort; SORT1
The experiment in a line: flow cytometry, 293 cells expressing recombinant human Sortilin, 10 ug/ml antibody. On the technique in general: A flow cytometer gives signals particle by particle.
Method: as §1

A further assay deals with human Sortilin (human, UniProt Q99523 78-830). Put plainly: cell-based or functional assay.

B1: anti-Sortilin antibody S-55 (antibody, V domains shown)
VH: QVQLQESGPGLVKPSETLSLTCAVSGYSISSGYYWGWIRQPPGKGLEWIGSIYHSGSTYYNPSLKSRVTISVDTSKNQFSLKLSSVTAADTAVYYCARGRPELGWDKYFQHWGQGTLVTVSS
VL: DIQMTQSPSSVSASVGDRVTITCRASQGISRWLAWYQQKPGKAPKLLIYAASSLQSGVPSRFSGSGSGTDFTLTISSLQPEDFATYYCQQANALPTFGGGTKVEIK
notes: IgG
As to B1, the MFI in assay [1] turned out to be 21400 MFI; in assay [2] it was 9480 MFI.

B2: anti-Sortilin antibody S-83 (antibody, V domains shown)
VH: QLQLQESGPGLVKPSETLSLTCTVSGGSISSSSYYWGWIRQPPGKGLEWIGSIYYSGSTYYNPSLKSRVTISVDTSKNQFSLKLSSVTAADTAVYYCARGSPTWLRDYYMDVWGKGTTVTVSS
VL: EIVLTQSPATLSVSPGERATLSCRASQSVSSNLAWYQQKPGQAPRLLIYGASTRATGIPARFSGSGSGTEFTLTISSLQSEDFAVYYCQQYNAFPPTFGGGTKVEIK
On to B2, for which the “Percent reduction of Sortilin levels in U251 cells” value (“Percent reduction” below) with human Sortilin was 48.1%.

B3: anti-Sortilin antibody S-4 (antibody, V domains shown)
VH: not shown
VL: EIVMTQSPATLSVSPGERATLSCRASQSVSSNLAWYQQKPGQAPRLLIYGASTRATGIPARFSGSGSGTEFTLTISSLQSEDFAVYYCQQFRVLPPTFGGGTKVEIK
notes: IgG
In the case of B3, the MFI in assay [1] amounted to 15700 MFI; in assay [2] it was 9120 MFI.

B4: anti-Sortilin antibody S-9 (antibody, V domains shown)
VH: QVQLVQSGAEVKKPGASVKVSCKASGYTFTSYGISWVRQAPGQGLEWMGWISAYNGNTNYAQKLQGRVTMTTDTSTSTAYMELRSLRSDDTAVYYCARDPGGYGPTLYYYYGMDVWGQGTTVTVSS
VL: EIVMTQSPATLSVSPGERATLSCRASQSVSSNLAWYQQKPGQAPRLLIYGASTRATGIPARFSGSGSGTEFTLTISSLQSEDFAVYYCQQYNIYPLTFGGGTKVEIK
notes: IgG
In the case of B4, the MFI in assay [1] came to 22200 MFI; in assay [2] it was 10300 MFI.

B5: anti-Sortilin antibody S-58 (antibody, V domains shown)
VH: QVQLQESGPGLVKPSETLSLTCAVSGYSISSGYYWGWIRQPPGKGLEWIGSIYHSGNTYYNPSLKSRVTISVDTSKNQFSLKLSSVTAADTAVYYCARGPPELGKMYFQHWGQGTLVTVSS
VL: EIVLTQSPATLSVSPGERATLSCRASQSVSSNLAWYQQKPGQAPRLLIYGASTRATGIPARFSGSGSGTEFTLTISSLQSEDFAVYYCQQDRKGPLTFGGGTKVEIK
notes: IgG
In the case of B5, the MFI in assay [1] was determined as 15100 MFI; in assay [2], 7770 MFI.

B6: anti-Sortilin antibody S-48 (antibody, V domains shown)
VH: QVQLVESGGGVVQPGRSLRLSCAASGFTFSSYGMHWVRQAPGKGLEWVAVISYDGSNKYYADSVKGRFTISRDNSKNTLYLQMNSLRAEDTAVYYCARESGDRATLVYYYYYGMDVWGQGTTVTVSS
VL: EIVMTQSPATLSVSPGERATLSCRASQSVSSNLAWYQQKPGQAPRLLIYSASTRATGIPARFSGSGSGTEFTLTISSLQSEDFAVYYCQQYNSWPITFGGGTKVEIK
notes: IgG
As for B6, the MFI in assay [1] came out at 11900 MFI; in assay [2], 8140 MFI.

B7: anti-Sortilin antibody S-69 (antibody, V domains shown)
VH: QVQLQESGPGLVKPSQTLSLTCTVSGGSISSGGYYWSWIRQHPGKGLEWIGYIYYSGSTYYNPSLKSRVTISVDTSKNQFSLKLSSVTAADTAVYYCARDRGGTHFGADHYYYGMDVWGQGTMVTVSS
VL: EIVMTQSPATLSVSPGERATLSCRASQSVSSSLAWYQQKPGQAPRLLIYGASTRATGIPARFSGSGSGTEFTLTISSLQSEDFAVYYCQQAADWPITFGGGTKVEIK
With B7, the “Percent reduction” value with human Sortilin came out at 23%.

B8: anti-Sortilin antibody S-6 (antibody, V domains shown)
VH: not shown
VL: EIVMTQSPATLSVSPGERATLSCRASQSVSSNLAWYQQKPGQAPRLLIYGASTRATGIPARFSGSGSGTEFTLTISSLQSEDFAVYYCQQVANYPRTFGGGTKVEIK
notes: IgG
As for B8, the MFI is 25600 MFI in assay [1] and 11100 MFI in assay [2].

B9: anti-Sortilin antibody S-61 (antibody, V domains shown)
VH: QVQLQESGPGLVKPSETLSLTCAVSGYSISSGYYWGWIRQPPGKGLEWIGSIYHSGSTYYNPSLKSRVTISVDTSKNQFSLKLSSVTAADTAVYYCARGSPRFYYGSGSYLDLFDIWGQGTMVTVSS
VL: EIVMTQSPATLSVSPGERATLSCRASQSVSSNLAWYQQKPGQAPRLLIYGASTRATGIPARFSGSGSGTEFTLTISSLQSEDFAVYYCQEYLNYPITFGGGTKVEIK
notes: IgG
On to B9, for which the MFI in assay [1] stood at 21800 MFI; in assay [2], 7480 MFI.

B10: anti-Sortilin antibody S-10 (antibody, V domains shown)
VH: QVQLVQSGAEVKKPGASVKVSCKASGYTFTSYGISWVRQAPGQGLEWMGWISAYNGNTNYAQKLQGRVTMTTDTSTSTAYMELRSLRSDDTAVYYCARDPGGYGPTLYYYYGMDVWGQGTTVTVSS
VL: EIVMTQSPATLSVSPGERATLSCRASQSVSSNLAWYQQKPGQAPRLLIYGASTRATGIPARFSGSGSGTEFTLTISSLQSEDFAVYYCQQYADWPPITFGGGTKVEIK
notes: IgG
As to B10, the MFI was 19400 MFI in assay [1] and 8660 MFI in assay [2].

B11: anti-Sortilin antibody S-40 (antibody, V domains shown)
VH: not shown
VL: EIVMTQSPATLSLSPGERATLSCRASQSVSSYLAWYQQKPGQAPRLLIYDASNRATGIPARFSGSGSGTDFTLTISSLEPEDFAVYYCQQRSALPFTFGGGTKVEIK
notes: IgG
Turning to B11, the MFI was found to be 2630 MFI in assay [1] and 7410 MFI in assay [2].

B12: anti-Sortilin antibody S-51 (antibody, V domains shown)
VH: QVQLVESGGGVVQPGRSLRLSCAASGFTFSSYGMHWVRQAPGKGLEWVAVISYDGSNKYYADSVKGRFTISRDNSKNTLYLQMNSLRAEDTAVYYCAKGLEYYDSSRLYYPYYYYMDVWGKGTTVTVSS
VL: EIVLTQSPATLSLSPGERATLSCRASQSVSSYLAWYQQKPGQAPRLLIYDASKRATGIPARFSGSGSGTDFTLTISSLEPEDFAVYYCQQRSNYPITFGGGTKVEIK
notes: IgG
As to B12, the MFI in assay [1] stood at 21900 MFI; in assay [2], 12200 MFI.

B13: anti-Sortilin antibody S-64 (antibody, V domains shown)
VH: QVQLQESGPGLVKPSETLSLTCAVSGYSISSGYYWGWIRQPPGKGLEWIGSIYHSGSTYYNPSLKSRVTISVDTSKNQFSLKLSSVTAADTAVYYCARAEHRGPRYFDLWGRGTLVTVSS
VL: DIQMTQSPSSLSASVGDRVTITCRASQSINSYLNWYQQKPGKAPKLLIYAASSLQSGVPSRFSGSGSGTDFTLTISSLQPEDFATYYCQQLDSTPITFGGGTKVEIK
For B13, the “Percent reduction” value with human Sortilin came out at 37.4%.

B14: anti-Sortilin antibody S-65 (antibody, V domains shown)
VH: QVQLQESGPGLVKPSETLSLTCAVSGYSISSGYYWGWIRQPPGKGLEWIGSIYHSGSTYYNPSLKSRVTISVDTSKNQFSLKLSSVTAADTAVYYCAREGQLPTGTFDYWGQGTLVTVSS
VL: not shown
notes: IgG
With B14, the MFI was determined as 17900 MFI in assay [1] and 8070 MFI in assay [2].

B15: anti-Sortilin antibody S-64 (antibody, V domains shown)
VH: QVQLQESGPGLVKPSETLSLTCAVSGYSISSGYYWGWIRQPPGKGLEWIGSIYHSGSTYYNPSLKSRVTISVDTSKNQFSLKLSSVTAADTAVYYCARAEHRGPRYFDLWGRGTLVTVSS
VL: DIQMTQSPSSLSASVGDRVTITCRASQSINSYLNWYQQKPGKAPKLLIYAASSLQSGVPSRFSGSGSGTDFTLTISSLQPEDFATYYCQQLDSTPITFGGGTKVEIK
notes: IgG
As to B15, the MFI in assay [2] amounted to 7930 MFI.

B16: anti-Sortilin antibody S-65 (antibody, V domains shown)
VH: QVQLQESGPGLVKPSETLSLTCAVSGYSISSGYYWGWIRQPPGKGLEWIGSIYHSGSTYYNPSLKSRVTISVDTSKNQFSLKLSSVTAADTAVYYCAREGQLPTGTFDYWGQGTLVTVSS
VL: not shown
Turning to B16, the “Percent reduction” value in the assay with human Sortilin was found to be 37.3%.

B17: anti-Sortilin antibody S-16 (antibody, V domains shown)
VH: QVQLVQSGAEVKKPGSSVKVSCKASGGTFSSYAISWVRQAPGQGLEWMGGIIPIFGTANYAQKFQGRVTITADESTSTAYMELSSLRSEDTAVYYCARSPYSGTRDFDLWGRGTLVTVSS
VL: DIQMTQSPSSVSASVGDRVTITCRASQGISSWLAWYQQKPGKAPKLLIYAASNLQSGVPSRFSGSGSGTDFTLTISSLQPEDFATYYCQQGNSYPITFGGGTKVEIK
notes: IgG
Turning to B17, the MFI in assay [2] is 6280 MFI.

B18: anti-Sortilin antibody S-2 (antibody, V domains shown)
VH: not shown
VL: DIQMTQSPSSLSASVGDRVTITCRASQSISSYLNWYQQKPGKAPKLLIYAASSLQSGVPSRFSGSGSGTDFTLTISSLQPEDFATYYCQQSDVSPITFGGGTKVEIK
notes: IgG
As for B18, the MFI was 22400 MFI in assay [1] and 8430 MFI in assay [2].

B19: anti-Sortilin antibody S-76 (antibody, V domains shown)
VH: QVQLQESGPGLVKPSQTLSLTCTVSGGSISSGGYYWSWIRQHPGKGLEWIGSIYYSGSTYYNPSLKSRVTISVDTSKNQFSLKLSSVTAADTAVYYCARGVGIQQQLVLGFDPWGQGTLVTVSS
VL: DIQMTQSPSSLSASVGDRVTITCRASQSISSFLNWYQQKPGKAPKLLISAASSLQSGVPSRFSGSGSGTDFTLTISSLQPEDFATYYCQQSYREPITFGGGTKVEIK
Regarding B19, the “Percent reduction” value in the assay with human Sortilin stood at 20.3%.

B20: anti-Sortilin antibody S-12 (antibody, V domains shown)
VH: QVQLVQSGAEVKKPGASVKVSCKASGYTFTSYGISWVRQAPGQGLEWMGWISAYNGNTNYAQKLQGRVTMTTDTSTSTAYMELRSLRSDDTAVYYCARDLPKYKWGWFDPWGQGTLVTVSS
VL: not shown
B20: the “Percent reduction” value with human Sortilin amounted to 12%.

B21: anti-Sortilin antibody S-12 (antibody, V domains shown)
VH: QVQLVQSGAEVKKPGASVKVSCKASGYTFTSYGISWVRQAPGQGLEWMGWISAYNGNTNYAQKLQGRVTMTTDTSTSTAYMELRSLRSDDTAVYYCARDLPKYKWGWFDPWGQGTLVTVSS
VL: not shown
notes: IgG
On to B21, for which the results for the MFI in assay [1] and in assay [2] were 18800 MFI and 9760 MFI, respectively.

B22: anti-Sortilin antibody S-74 (antibody, V domains shown)
VH: QVQLQESGPGLVKPSQTLSLTCTVSGGSISSGTYYWSWIRQHPGKGLEWIGYIYYSGSTYYNPSLKSRVTISVDTSKNQFSLKLSSVTAADTAVYYCARGVGRYRVADYWGQGTLVTVSS
VL: EIVMTQSPATLSLSPGERATLSCRASQSVSSYLAWYQQKPGQAPRLLIYDSSNRATGIPARFSGSGSGTDFTLTISSLEPEDFAVYYCQQETNMPPITFGGGTKVEIK
On to B22, for which, in the assay with human Sortilin, the “Percent reduction” value amounted to 22.1%.

B23: anti-Sortilin antibody S-60 (antibody, V domains shown)
VH: QVQLQESGPGLVKPSETLSLTCAVSGYSISSGYYWGWIRQPPGKGLEWIGTIYHSGSTYYNPSLKSRVTISVDTSKNQFSLKLSSVTAADTAVYYCARQGSIKQGYYGMDVWGQGTTVTVSS
VL: not shown
Take B23: in the assay with human Sortilin, the “Fold increase in Progranulin levels in U251 cells” value was 2.24 fold and the “Percent reduction” value worked out at 59.5%.
